This experiment addresses T1, 125I-IL-13 (UniProt P35225 35-146, limits assumed, 125I label (site not stated)).
T1 construct: also called labeled IL-13; interleukin 13
In words: saturation binding analysis of 125I-IL-13 on BHK cells expressing Zcytor2. The protocol:
The binding of ¹²⁵I-IL-13 to wild-type and Zcytor2-transfected BHK, TF-1, and BaF3 cells was determined. BHK cells were assayed in 6-well culture plates. TF-1 and BaF3 cells were assayed in microcentrifuge tubes. Cells were combined with 500 μl of either solution A (15 ml of binding buffer [RPMI containing 20 mM Tris pH7.4, 0.05% NaN₃, and 3 mg/ml BSA] plus 263 μl of ¹²⁵I-IL-13 [5.7×10⁷ cpm/ml]) or solution B (solution A containing 15 μl of cold 25 μg/ml IL-13). After a 2-hour incubation, cells were washed three times with 500 μl binding buffer and lysed in 500 μl of 400 mM NaOH. Lysates were transferred to tubes for gamma counting.

T1 sequence (P35225 35-146 limits assumed): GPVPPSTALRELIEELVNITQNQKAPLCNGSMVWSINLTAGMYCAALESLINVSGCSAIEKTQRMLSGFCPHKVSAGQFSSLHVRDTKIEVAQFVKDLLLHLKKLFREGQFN

B1: human Zcytor2 receptor expressed on transfected BHK cells (receptor)
chain: SSDTEIKVNPPQDFEIVDPGYLGYLYLQWQPPLSLDHFKEYTVEYELKYRNIGSETWKTIITKNLHYKDGFDLNKGIEAKIHTLLPWQCTNGSEVQSSWAETTYWISPQGIPETKVQDMDCVYYNWQYLLCSWKPGIGVLLDTNYNLFYWYEGLDLALQCVDYIKADGQNIGCRFPYLEASDYKDFYICVNGSSENKPIRSSYFTFQLQNIVKPLPPVYLTFTRESSCEIKLKWGIPLGPIPARCFDYEIEIREDDTTLVTATVENETYTLKTTNETRQLCFVVRSKVNIYCSDDGIWSEWSDKQCWEGEDLSKKTLLRFWLPFGFILILVIFVTGLLLRKPNTYPKMIPEFFCDT
notes: also called BHK/Zcytor2 cells; Zcytor2-transfected BHK
Broadly, the Kd is a measure of binding affinity in units of concentration. Take B1: the Kd came out at 0.59 nM.

For the origin of these results see US20060110800A1 (ZymoGenetics, published 2006).
